The term Kd denotes the constant that tells how readily two partners part at equilibrium.

The values below come from article PMC3953818, “Characterization and regulation of an additional actin-filament-binding site in large isoforms of the stereocilia actin-bundling protein espin” (Journal of Cell Science, 2014).

Read-outs that look alike come from different tables or passages of the source.

The target of experiment [1] is preformed filaments of rabbit skeletal muscle actin (rabbit) (UniProt P68135). Briefly: co-sedimentation; purified GST fusion proteins incubated with preformed filaments of rabbit skeletal muscle actin (0.4 mg/ml) for 60 min at 37°C in 10 mM HEPES, 0.1 M KCl, 1 mM dithiothreitol, 0.5 mM ATP, 1 mM MgCl2, 1 mM NaN3, pH 7.4; 150,000 g for 60 min at 4°C; pellet and supernatant on Coomassie-stained SDS gels.

A further experiment deals with monomeric actin (rabbit) (UniProt P68135).
The target of experiment [2] is His-tagged ankyrin repeat domain (M1-R339 of human espin 1) (human) (UniProt B1AK53). Briefly: pull-down; competition: the same pull-down of His–(1-339) on glutathione beads loaded with GST–(340-854), without or with synthetic peptide at 30 µM.
In experiment [3] the target is F-actin (UniProt P68133). Conditions: cited from earlier work.
The target in experiment [4] is F-actin (UniProt P68133). Conditions: cited from earlier work. The source holds these as a separate data set.
Experiment [5] concerns the target F-actin (UniProt P68133). Conditions: cited from earlier work. The source holds these as a separate data set.
In experiment [6] the target is T1, GST–(340-854) human espin 1 fragment missing the V462-K487 xAB-containing peptide (human, UniProt B1AK53 340-854, missing the V462-K487 xAB-containing peptide (ΔxAB)).
T1 construct: human espin 1, residues D340-Y854 with V462-K487 deleted; also called ΔxAB; source: E. coli BL21 Star (DE3), purified (glutathione-Sepharose 4B), loaded on glutathione beads
T1 sequence (looked up): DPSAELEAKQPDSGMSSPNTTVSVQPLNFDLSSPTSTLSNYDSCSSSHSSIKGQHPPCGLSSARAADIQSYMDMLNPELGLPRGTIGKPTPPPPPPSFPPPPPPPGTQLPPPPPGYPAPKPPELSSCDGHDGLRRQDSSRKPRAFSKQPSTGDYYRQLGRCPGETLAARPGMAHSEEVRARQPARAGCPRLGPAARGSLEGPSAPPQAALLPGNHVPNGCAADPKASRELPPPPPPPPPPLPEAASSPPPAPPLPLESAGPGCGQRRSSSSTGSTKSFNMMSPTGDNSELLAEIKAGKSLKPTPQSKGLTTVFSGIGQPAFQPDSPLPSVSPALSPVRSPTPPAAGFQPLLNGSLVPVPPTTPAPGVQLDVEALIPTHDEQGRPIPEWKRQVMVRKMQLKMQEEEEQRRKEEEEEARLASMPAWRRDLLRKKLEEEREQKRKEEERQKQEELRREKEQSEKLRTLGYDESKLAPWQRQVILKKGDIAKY
Briefly: pull-down; His-tagged ankyrin repeat domain incubated with glutathione-Sepharose beads preloaded with GST or GST–human espin 340–854 fragment in 5 mM HEPES, 10 mM imidazole, 0.1 M KCl, 1 mM dithiothreitol, 3 mM NaN3, pH 7.4, 60 min at 22°C; five washes at 4°C; Coomassie-stained SDS gels. Conditions: both partners purified.

With “GST fusion with peptide V130-K155 of rat espin 2B (domain or fragment)”, the percent of the fusion protein recovered in the high-speed pellet with F-actin in experiment [1] is 42%. In the experiment with monomeric actin (rabbit), the inhibition of the rate of pyrene-actin polymerization relative to the GST control, concentration series up to 5 µM is 11%. The molecule “MYO3A tail homology domain I peptide (M3)” showed a percent of the His–ankyrin repeat domain still bound to GST–340-854 with 30 µM M3 in experiment [2] of 8%.

espin 1 339-720 (from UniProt Q63618): the Kd with F-actin [3] is 1000 nM.

As for “espin 1 ΔN338 ΔN338 (from UniProt Q63618)”, the equilibrium dissociation constant (Kd) with F-actin [4] was 70 nM. Regarding “espin smallest isoform (from UniProt Q63618)”, in the experiment with F-actin [5], the equilibrium dissociation constant (Kd) was 220 nM.

B1: His-tagged ankyrin repeat domain (M1-R339 of human espin 1) (domain or fragment, UniProt B1AK53 1-339, looked up)
chain: MALEQALQAARQGELDVLRSLHAAGLLGPSLRDPLDALPVHHAARAGKLHCLRFLVEEAALPAAARARNGATPAHDASATGHLACLQWLLSQGGCRVQDKDNSGATVLHLAARFGHPEVVNWLLHHGGGDPTAATDMGALPIHYAAAKGDFPSLRLLVEHYPEGVNAQTKNGATPLYLACQEGHLEVTQYLVQECGADPHARAHDGMTPLHAAAQMGHSPVIVWLVSCTDVSLSEQDKDGATAMHFAASRGHTKVLSWLLLHGGEISADLWGGTPLHDAAENGELECCQILVVNGAELDVRDRDGYTAADLSDFNGHSHCTRYLRTVENLSVEHRVLSR
notes: human espin 1, ankyrin repeat domain, residues M1-R339; Expressed from ProEX HTa or HTb; also called His–(1-339); His–ankyrin repeat domain; source: E. coli BL21 Star (DE3), purified (Ni-NTA agarose); not shown: His tag, N-terminal, kept
Take B1: in experiment [6], the binding result was “binds”.
